In patent publication US20030096747A1 one finds migration of rat CSMC (Transwell, 4 hr); optimal VEGF concentration and proliferation of rat CSMC (CellTiter-96, OD490nm, 3 days); optimal VEGF concentration data, which are given here for one substance.

The target in the assay is VEGFR-1 expressed in rat cavernous smooth muscle cells (CSMC) (rat) (UniProt P53767). The experiment in a line: cell-based or functional assay.
Chain of VEGFR-1 expressed in rat cavernous smooth muscle cells (CSMC) (rat) (P53767 23-1336): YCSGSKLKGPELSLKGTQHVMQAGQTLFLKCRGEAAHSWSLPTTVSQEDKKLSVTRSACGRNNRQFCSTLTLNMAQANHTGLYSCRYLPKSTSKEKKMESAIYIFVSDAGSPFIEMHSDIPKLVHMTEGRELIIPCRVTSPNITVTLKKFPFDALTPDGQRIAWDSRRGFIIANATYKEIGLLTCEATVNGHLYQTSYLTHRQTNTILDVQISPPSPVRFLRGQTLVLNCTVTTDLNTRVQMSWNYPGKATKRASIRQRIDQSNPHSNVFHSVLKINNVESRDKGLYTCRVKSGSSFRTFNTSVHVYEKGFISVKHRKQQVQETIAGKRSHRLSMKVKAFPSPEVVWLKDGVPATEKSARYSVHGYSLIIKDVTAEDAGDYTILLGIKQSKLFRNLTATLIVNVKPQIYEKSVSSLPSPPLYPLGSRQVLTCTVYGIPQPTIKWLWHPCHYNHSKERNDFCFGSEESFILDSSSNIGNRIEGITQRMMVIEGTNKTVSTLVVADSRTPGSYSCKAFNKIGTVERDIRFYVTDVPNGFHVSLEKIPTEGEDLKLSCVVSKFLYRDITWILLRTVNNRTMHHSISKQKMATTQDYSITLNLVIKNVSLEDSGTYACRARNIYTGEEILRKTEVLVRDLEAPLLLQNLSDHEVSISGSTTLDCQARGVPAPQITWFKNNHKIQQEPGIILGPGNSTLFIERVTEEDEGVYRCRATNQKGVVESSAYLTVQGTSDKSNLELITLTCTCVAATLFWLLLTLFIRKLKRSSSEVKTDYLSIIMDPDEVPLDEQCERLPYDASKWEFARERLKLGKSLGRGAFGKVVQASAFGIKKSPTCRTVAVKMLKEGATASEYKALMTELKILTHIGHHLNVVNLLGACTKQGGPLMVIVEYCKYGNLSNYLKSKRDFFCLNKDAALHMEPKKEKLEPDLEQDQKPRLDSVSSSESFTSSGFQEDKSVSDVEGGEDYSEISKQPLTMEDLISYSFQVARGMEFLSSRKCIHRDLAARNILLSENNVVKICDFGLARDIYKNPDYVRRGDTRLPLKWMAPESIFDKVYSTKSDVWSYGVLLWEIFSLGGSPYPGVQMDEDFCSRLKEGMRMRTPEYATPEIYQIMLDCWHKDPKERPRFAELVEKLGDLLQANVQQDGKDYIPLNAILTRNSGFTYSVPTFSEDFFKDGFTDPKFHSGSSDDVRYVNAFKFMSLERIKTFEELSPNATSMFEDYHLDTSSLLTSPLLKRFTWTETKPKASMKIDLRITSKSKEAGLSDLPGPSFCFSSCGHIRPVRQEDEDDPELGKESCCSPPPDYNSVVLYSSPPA

Take “Recombinant human VEGF165 (from UniProt P15692 27-191) (ligand)”: the migration of rat CSMC (Transwell, 4 hr); optimal VEGF concentration was 10 ng/mL and the proliferation of rat CSMC (CellTiter-96, OD490nm, 3 days); optimal VEGF concentration was determined as 12.5 ng/mL.
